Results on 1 molecule are retold here after article PMC11724271.

Where “and” joins values, the source holds several entries; their conditions need not be identical. Equal entries are not always repeated.

This experiment has as its target CdiA-CT^EC536_H178A (catalytically inactive C-terminal toxin domain of CdiA from uropathogenic E. coli 536) (uropathogenic Escherichia coli 536). Kind of experiment: cryo-EM structure.

B1: O-acetylserine sulfhydrylase A (CysK) (enzyme)
chain: MSKIFEDNSLTIGHTPLVRLNRIGNGRILAKVESRNPSFSVKCRIGANMIWDAEKRGVLKPGVELVEPTSGNTGIALAYVAAARGYKLTLTMPETMSIERRKLLKALGANLVLTEGAKGMKGAIQKAEEIVASNPEKYLLLQQFSNPANPEIHEKTTGPEIWEDTDGQVDVFIAGVGTGGTLTGVSRYIKGTKGKTDLISVAVEPTDSPVIAQALAGEEIKPGPHKIQGIGAGFIPANLDLKLVDKVIGITNEEAISTARRLMEEEGILAGISSGAAVAAALKLQEDESFTNKNIVVILPSSGERYLSTALFADLFTEKELQQ
modifications: PLP (N'-pyridoxyl-lysine-5'-monophosphate); position not given
Regarding B1, the stoichiometry N (CysK per CdiA-CT) is 2 and 1.
